The target in series [1] is T1, 6xHis-SUMO-TRAF2 (residues 315-501) (human, UniProt Q12933 315-501).
T1 construct: also called SUMO-TRAF-C of TRAF2; TRAF2 TRAF-C domain
T1 sequence (looked up): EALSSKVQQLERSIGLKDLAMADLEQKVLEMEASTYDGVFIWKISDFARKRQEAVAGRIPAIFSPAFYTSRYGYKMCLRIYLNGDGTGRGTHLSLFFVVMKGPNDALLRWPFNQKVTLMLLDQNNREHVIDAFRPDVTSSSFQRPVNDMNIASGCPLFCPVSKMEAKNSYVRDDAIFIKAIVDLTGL
As to the kind of experiment: fluorescence polarisation. To be noted: both partners purified. (Polarisation of emitted light reports the rotation of a fluorescent probe.)

Series [2] concerns the target T2, 6xHis-SUMO-TRAF3 (residues 341-568) (human, UniProt Q13114 341-568).
T2 construct: also called SUMO-TRAF-C of TRAF3; TRAF3 TRAF-C domain
T2 sequence (looked up): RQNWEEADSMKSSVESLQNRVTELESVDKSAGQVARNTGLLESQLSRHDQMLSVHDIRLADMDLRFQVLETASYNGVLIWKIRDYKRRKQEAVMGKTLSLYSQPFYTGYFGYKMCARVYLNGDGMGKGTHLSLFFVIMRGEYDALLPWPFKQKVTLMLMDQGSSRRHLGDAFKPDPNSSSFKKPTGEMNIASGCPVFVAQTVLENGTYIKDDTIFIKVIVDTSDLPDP
Briefly: fluorescence polarisation. To be noted: both partners purified.

The series “crystal structure” concerns the molecule itself. As to the kind of experiment: crystal structure.
Series [3] has as its target 16-aa ORF3a peptide (SARS-CoV-2 ORF3a residues 30-45) (SARS-CoV-2). Briefly: crystal structure. To be noted: both partners purified.

Data on two molecules can be found in article PMC10675646 (Viruses, 2023).

Where no end group is shown, it is not given here. The star is where a group is joined. 5FAM = O=C1OC2(c3ccc(O)cc3Oc3cc(O)ccc32)c2ccc(C(=O)*)cc21; Ahx = NCCCCCC(=O)O

B1: 5-FAM-Ahx-PIQAS peptide (5-aa ORF3a peptide, residues 36-40) (peptide)
peptide: {5FAM-Ahx}-PIQAS
notes: also called 5-FAM-ORF3a peptide; fluorescently labeled PIQAS peptide
Usually Kd stands for the equilibrium constant for the complex coming apart. Lower therefore signals a tighter complex. Turning to B1, the Kd in series [1] was 192 µM; in series [2], 172 µM.

B2: TRAF2 TRAF-C domain (human TRAF2 residues 315-501), tag cleaved, for crystallization (domain or fragment, UniProt Q12933 315-501, looked up)
chain: EALSSKVQQLERSIGLKDLAMADLEQKVLEMEASTYDGVFIWKISDFARKRQEAVAGRIPAIFSPAFYTSRYGYKMCLRIYLNGDGTGRGTHLSLFFVVMKGPNDALLRWPFNQKVTLMLLDQNNREHVIDAFRPDVTSSSFQRPVNDMNIASGCPLFCPVSKMEAKNSYVRDDAIFIKAIVDLTGL
As usually defined, the stoichiometry N is the number of molecules, sites or subunits per partner or assembly. In the case of B2, in the series “crystal structure”, the “stoichiometry N” value worked out at 3. The binding result in series [3] is “binds”.
